Experimental data from publication PMC4646805 (Science Advances, 2015).
Like-named read-outs stand apart in the source and are kept apart here.

Key:
[1] = target: T1, rabbit skeletal muscle actin, pyrene-labelled, phalloidin-stabilized (rabbit, UniProt P68135 1-377, pyrene (labelled with pyrene-maleimide)); assay: other fluorescence titration
[2] = target: T1, rabbit skeletal muscle actin, …; assay: other fluorescence titration; remark: listed apart in the source

Kd [1] [nM] | Kd [2] [nM] | Binder
10 ± 1.8 | 23.4 ± 2.5 | wild-type human β-cardiac myosin short subfragment 1 (sS1) with C-terminal 6× His tag (complex) chain 1: MGDSEMAVFGAAAPYLRKSEKERLEAQTRPFDLKKDVFVPDDKQEFVKAKIVSREGGKVTAETEYGKTVTVKEDQVMQQNPPKFDKIEDMAMLTFLHEPAVLYNLKDRYGSWMIYTYSGLFCVTVNPYKWLPVYTPEVVAAYRGKKRSEAPPHIFSISDNAYQYMLTDRENQSILITGESGAGKTVNTKRVIQYFAVIAAIGDRSKKDQSPGKGTLEDQIIQANPALEAFGNAKTVRNDNSSRFGKFIRIHFGATGKLASADIETYLLEKSRVIFQLKAERDYHIFYQILSNKKPELLDMLLITNNPYDYAFISQGETTVASIDDAEELMATDNAFDVLGFTSEEKNSMYKLTGAIMHFGNMKFKLKQREEQAEPDGTEEADKSAYLMGLNSADLLKGLCHPRVKVGNEYVTKGQNVQQVIYATGALAKAVYERMFNWMVTRINATLETKQPRQYFIGVLDIAGFEIFDFNSFEQLCINFTNEKLQQFFNHHMFVLEQEEYKKEGIEWTFIDFGMDLQACIDLIEKPMGIMSILEEECMFPKATDMTFKAKLFDNHLGKSANFQKPRNIKGKPEAHFSLIHYAGIVDYNIIGWLQKNKDPLNETVVGLYQKSSLKLLSTLFANYAGADAPIEKGKGKAKKGSSFQTVSALHRENLNKLMTNLRSTHPHFVRCIIPNETKSPGVMDNPLVMHQLRCNGVLEGIRICRKGFPNRILYGDFRQRYRILNPAAIPEGQFIDSRKGAEKLLSSLDIDHNQYKFGHTKVFFKAGLLGLLEEMRDERLSRIITRIQAQSRGVLARMEYKKLLERR chain 2: not shown
19.7 ± 6.2 | 63.2 ± 16.7 | R403Q human β-cardiac myosin short subfragment 1 (sS1) with C-terminal 6× His tag (complex) chain 1: MGDSEMAVFGAAAPYLRKSEKERLEAQTRPFDLKKDVFVPDDKQEFVKAKIVSREGGKVTAETEYGKTVTVKEDQVMQQNPPKFDKIEDMAMLTFLHEPAVLYNLKDRYGSWMIYTYSGLFCVTVNPYKWLPVYTPEVVAAYRGKKRSEAPPHIFSISDNAYQYMLTDRENQSILITGESGAGKTVNTKRVIQYFAVIAAIGDRSKKDQSPGKGTLEDQIIQANPALEAFGNAKTVRNDNSSRFGKFIRIHFGATGKLASADIETYLLEKSRVIFQLKAERDYHIFYQILSNKKPELLDMLLITNNPYDYAFISQGETTVASIDDAEELMATDNAFDVLGFTSEEKNSMYKLTGAIMHFGNMKFKLKQREEQAEPDGTEEADKSAYLMGLNSADLLKGLCHPQVKVGNEYVTKGQNVQQVIYATGALAKAVYERMFNWMVTRINATLETKQPRQYFIGVLDIAGFEIFDFNSFEQLCINFTNEKLQQFFNHHMFVLEQEEYKKEGIEWTFIDFGMDLQACIDLIEKPMGIMSILEEECMFPKATDMTFKAKLFDNHLGKSANFQKPRNIKGKPEAHFSLIHYAGIVDYNIIGWLQKNKDPLNETVVGLYQKSSLKLLSTLFANYAGADAPIEKGKGKAKKGSSFQTVSALHRENLNKLMTNLRSTHPHFVRCIIPNETKSPGVMDNPLVMHQLRCNGVLEGIRICRKGFPNRILYGDFRQRYRILNPAAIPEGQFIDSRKGAEKLLSSLDIDHNQYKFGHTKVFFKAGLLGLLEEMRDERLSRIITRIQAQSRGVLARMEYKKLLERR chain 2: not shown
